In the supplement of paper PMC11246515:
± gives the standard deviation of the averaged measurements.

Assay: total protein half-life in vivo (active degradation + dilution); higher = more stable protein
[1] = E. coli NCM3722 delta-clpP delta-lon delta-hslV, growth: N-lim chemostat, doubling time 6 h
[2] = E. coli NCM3722 delta-clpP, growth: N-lim chemostat, doubling time 6 h
[3] = E. coli NCM3722 delta-hslV, growth: N-lim chemostat, doubling time 6 h
[4] = E. coli NCM3722 delta-lon, growth: N-lim chemostat, doubling time 6 h
[5] = E. coli NCM3722 delta-smpB, growth: N-lim chemostat, doubling time 6 h
[6] = wild type E. coli NCM3722, growth: C-lim chemostat, doubling time 3 h
[7] = wild type E. coli NCM3722, growth: C-lim chemostat, doubling time 6 h
[8] = wild type E. coli NCM3722, growth: C-lim chemostat, doubling time 12 h
[9] = wild type E. coli NCM3722, growth: N-lim chemostat, doubling time 6 h
[10] = wild type E. coli NCM3722, growth: N-lim chemostat, doubling time 12 h
[11] = wild type E. coli NCM3722, growth: P-lim chemostat, doubling time 6 h
[12] = wild type E. coli NCM3722, growth: P-lim chemostat, doubling time 12 h

Sequence | total protein half-life in vivo [1] [h] | total protein half-life in vivo [2] [h] | total protein half-life in vivo [3] [h] | total protein half-life in vivo [4] [h] | total protein half-life in vivo [5] [h] | total protein half-life in vivo [6] [h] | total protein half-life in vivo [7] [h] | total protein half-life in vivo [8] [h] | total protein half-life in vivo [9] [h] | total protein half-life in vivo [10] [h] | total protein half-life in vivo [11] [h] | total protein half-life in vivo [12] [h]
MSDNIRVGLIGYGYASKTFHAPLIAGTPGQELAVISSSDETKVKADWPTVTVVSEPKHLFNDPNIDLIVIPTPNDTHFPLAKAALEAGKHVVVDKPFTVTLSQARELDALAKSLGRVLSVFHNRRWDSDFLTLKGLLAEGVLGEVAYFESHFDRFRPQVRDRWREQGGPGSGIWYDLAPHLLDQAITLFGLPVSMTVDLAQLRPGAQSTDYFHAILSYPQRRVILHGTMLAAAESARYIVHGSRGSYVKYGLDPQEERLKNGERLPQEDWGYDMRDGVLTRVEGEERVEETLLTVPGNYPAYYAAIRDALNGDGENPVPASQAIQVMELIELGIESAKHRATLCLA | 5.37 ± 0.71 | 4.69 ± 0.12 | 4.729 ± 0.033 | 5.58 ± 0.43 | 4.176 ± 0.0077 | 3.26 ± 0.26 | 5.54 ± 0.26 | 9.43 ± 2.6 | 5.05 ± 0.36 | 10.5 ± 0.45 | 5.48 ± 0.27 | 13.8 ± 0.79
MKFVKYFLILAVCCILLGAGSIYGLYRYIEPQLPDVATLKDVRLQIPMQIYSADGELIAQYGEKRRIPVTLDQIPPEMVKAFIATEDSRFYEHHGVDPVGIFRAASVALFSGHASQGASTITQQLARNFFLSPERTLMRKIKEVFLAIRIEQLLTKDEILELYLNKIYLGYRAYGVGAAAQVYFGKTVDQLTLNEMAVIAGLPKAPSTFNPLYSMDRAVARRNVVLSRMLDEGYITQQQFDQTRTEAINANYHAPEIAFSAPYLSEMVRQEMYNRYGESAYEDGYRIYTTITRKVQQAAQQAVRNNVLDYDMRHGYRGPANVLWKVGESAWDNNKITDTLKALPTYGPLLPAAVTSANPQQATAMLADGSTVALSMEGVRWARPYRSDTQQGPTPRKVTDVLQTGQQIWVRQVGDAWWLAQVPEVNSALVSINPQNGAVMALVGGFDFNQSKFNRATQALRQVGSNIKPFLYTAAMDKGLTLASMLNDVPISRWDASAGSDWQPKNSPPQYAGPIRLRQGLGQSKNVVMVRAMRAMGVDYAAEYLQRFGFPAQNIVHTESLALGSASFTPMQVARGYAVMANGGFLVDPWFISKIENDQGGVIFEAKPKVACPECDIPVIYGDTQKSNVLENNDVEDVAISREQQNVSVPMPQLEQANQALVAKTGAQEYAPHVINTPLAFLIKSALNTNIFGEPGWQGTGWRAGRDLQRRDIGGKTGTTNSSKDAWFSGYGPGVVTSVWIGFDDHRRNLGHTTASGAIKDQISGYEGGAKSAQPAWDAYMKAVLEGVPEQPLTPPPGIVTVNIDRSTGQLANGGNSREEYFIEGTQPTQQAVHEVGTTIIDNGEAQELF | 5.593 ± 0.05 | 5.49 ± 0.056 | 5.4453 ± 0.0032 | 6.37 ± 1.3 | 5.3 ± 0.31 | 3.35 ± 0.36 | 5.7 ± 0.38 | 10.82 ± 0.022 | 5.08 ± 0.37 | 10.2 ± 0.59 | 4.46 ± 0.3 | 7.61 ± 0.27
MSSEKLYSPLKVGAITAANRIFMAPLTRLRSIEPGDIPTPLMAEYYRQRASAGLIISEATQISAQAKGYAGAPGIHSPEQIAAWKKITAGVHAENGHMAVQLWHTGRISHASLQPGGQAPVAPSALSAGTRTSLRDENGQAIRVETSMPRALELEEIPGIVNDFRQAIANAREAGFDLVELHSAHGYLLHQFLSPSSNHRTDQYGGSVENRARLVLEVVDAGIEEWGADRIGIRVSPIGTFQNTDNGPNEEADALYLIEQLGKRGIAYLHMSEPDWAGGEPYTDAFREKVRARFHGPIIGAGAYTVEKAETLIGKGLIDAVAFGRDWIANPDLVARLQRKAELNPQRAESFYGGGAEGYTDYPTL | 5.08 ± 0.17 | 2.14 ± 0.038 | 1.51 ± 0.027 |  | 1.5 ± 0.061 | 2.13 ± 0.48 | 2.98 ± 0.53 | 3.17 ± 0.57 | 1.66 ± 0.12 | 2.097 ± 0.015 | 1.55 ± 0.16 | 2.85 ± 1.7
MKIVEVKHPLVKHKLGLMREQDISTKRFRELASEVGSLLTYEATADLETEKVTIEGWNGPVEIDQIKGKKITVVPILRAGLGMMDGVLENVPSARISVVGMYRNEETLEPVPYFQKLVSNIDERMALIVDPMLATGGSVIATIDLLKKAGCSSIKVLVLVAAPEGIAALEKAHPDVELYTASIDQGLNEHGYIIPGLGDAGDKIFGTK [P0A8F0] | 5.6625 ± 0.0038 | 5.17 ± 0.33 | 5.83 ± 0.94 | 5.36 ± 0.61 | 5.3 ± 0.15 | 3.05 ± 0.29 | 5.86 ± 0.36 | 10.9 ± 1.4 | 5.71 ± 0.23 | 12.1 ± 2.8 | 6.55 ± 0.34 | 11.3 ± 0.98
MDKSKRHLAWWVVGLLAVAAIVAWWLLRPAGVPEGFAVSNGRIEATEVDIASKIAGRIDTILVKEGKFVREGEVLAKMDTRVLQEQRLEAIAQIKEAQSAVAAAQALLEQRQSETRAAQSLVNQRQAELDSVAKRHTRSRSLAQRGAISAQQLDDDRAAAESARAALESAKAQVSASKAAIEAARTNIIQAQTRVEAAQATERRIAADIDDSELKAPRDGRVQYRVAEPGEVLAAGGRVLNMVDLSDVYMTFFLPTEQAGTLKLGGEARLILDAAPDLRIPATISFVASVAQFTPKTVETSDERLKLMFRVKARIPPELLQQHLEYVKTGLPGVAWVRVNEELPWPDDLVVRLPQ | 7.13 ± 1.2 | 6.23 ± 0.4 | 6.68 ± 0.17 | 6.78 ± 0.59 | 5.93 ± 0.0093 | 3.27 ± 0.32 | 6.21 ± 0.2 | 13 ± 1 | 6.37 ± 0.43 | 13.5 ± 1.4 | 6.03 ± 0.35 | 12.9 ± 0.49
MALTTISPHDAQELIARGAKLIDIRDADEYLREHIPEADLAPLSVLEQSGLPAKLRHEQIIFHCQAGKRTSNNADKLAAIAAPAEIFLLEDGIDGWKKAGLPVAVNKSQPLPLMRQVQIAAGGLILIGVVLGYTVNSGFFLLSGFVGAGLLFAGISGFCGMARLLDKMPWNQRA | 4.3 ± 0.19 | 4.2 ± 0.14 | 4.71 ± 0.24 | 4.74 ± 0.82 | 5.91 ± 1.4 | 2.61 ± 0.23 | 6.01 ± 1.2 | 8.96 ± 2.1 | 4.58 ± 0.2 | 8.75 ± 0.24 | 5.266 ± 0.016 | 10.3 ± 0.39
MLQNIRIVLVETSHTGNMGSVARAMKTMGLTNLWLVNPLVKPDSQAIALAAGASDVIGNAHIVDTLDEALAGCSLVVGTSARSRTLPWPMLDPRECGLKSVAEAANTPVALVFGRERVGLTNEELQKCHYHVAIAANPEYSSLNLAMAVQVIAYEVRMAWLATQENGEQVEHEETPYPLVDDLERFYGHLEQTLLATGFIRENHPGQVMNKLRRLFTRARPESQELNILRGILASIEQQNKGNKAE [P0AE01] | 4.67 ± 0.57 | 4.013 ± 0.028 | 4.18 ± 0.18 | 5.15 ± 0.92 | 4.43 ± 0.4 | 2.8 ± 0.32 | 5.41 ± 0.56 | 9.64 ± 0.46 | 4.34 ± 0.23 | 7.52 ± 0.47 | 5.22 ± 0.042 | 10.6 ± 0.77
